From article PMC12032302, “A20 attenuates oxidized self-DNA-mediated inflammation in acute kidney injury” (Signal Transduction and Targeted Therapy, 2025)

Key:
[1] = target: T1, HA-NEK7 (mouse NIMA-related kinase 7, wild type) (mouse, UniProt Q9ES74 1-302); assay: BLI; 3×HA-NEK7 (WT or Tri-MUT) purified from HEK293T with HA antibody; legend: P-II diluted into the indicated concentrations; methods: peptide immobilised on AR2G biosensors; 1:1 binding model; conditions: both partners purified
T1 construct: NEK7, mouse, cDNA amplified from a mouse cDNA library; also called WT-NEK7; HA-WT-NEK7; source: HEK293T, transiently transfected, in lysate; for BLI purified with HA antibody, eluted with 0.1 M glycine pH 2.0
T1 sequence (Q9ES74 whole entry): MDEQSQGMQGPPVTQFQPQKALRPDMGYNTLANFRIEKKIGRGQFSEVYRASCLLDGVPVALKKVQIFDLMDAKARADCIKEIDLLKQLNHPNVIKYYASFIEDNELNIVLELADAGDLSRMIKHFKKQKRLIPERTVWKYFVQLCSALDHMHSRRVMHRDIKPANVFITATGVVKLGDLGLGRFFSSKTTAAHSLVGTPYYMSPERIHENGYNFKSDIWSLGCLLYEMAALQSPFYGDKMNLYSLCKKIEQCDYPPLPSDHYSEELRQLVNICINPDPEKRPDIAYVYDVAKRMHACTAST

[2] = target: T2, recombinant human NEK7 protein (human, UniProt Q8TDX7 1-302); assay: BLI; peptide immobilised on Octet AR2G biosensors at 400 μg/ml for 500 s; recombinant human NEK7 39.0625 to 1250 nM, association 120 s, dissociation 120 s; 1:1 binding model; conditions: both partners purified
T2 construct: NEK7, human, recombinant; source: bought: SinoBiological
T2 sequence (Q8TDX7 whole entry): as the sequence (Q9ES74 whole entry) above, with T14P, S52A, D150E, I273M, I285V, A286T, T302S counted along it

binding result [1]: binds
binding result [2]: binds
B1: A20-derived peptide P-II (peptide)
peptide: KLVALKTNGDGNCLMHAACQYMWGVQDTD
notes: peptide generated according to the OTU domain of A20; also called NEK7 targeting peptide; source: synthetic peptide (constructed by GeneWiz; for BLI: Bootech BioScience &Technology)
